# From US20250283116, “USE OF ISCB IN GENOME EDITING” (Cornell University, published 2025)
# T1: OgeuIscB wild-type (human gut metagenome)
# T1 chain: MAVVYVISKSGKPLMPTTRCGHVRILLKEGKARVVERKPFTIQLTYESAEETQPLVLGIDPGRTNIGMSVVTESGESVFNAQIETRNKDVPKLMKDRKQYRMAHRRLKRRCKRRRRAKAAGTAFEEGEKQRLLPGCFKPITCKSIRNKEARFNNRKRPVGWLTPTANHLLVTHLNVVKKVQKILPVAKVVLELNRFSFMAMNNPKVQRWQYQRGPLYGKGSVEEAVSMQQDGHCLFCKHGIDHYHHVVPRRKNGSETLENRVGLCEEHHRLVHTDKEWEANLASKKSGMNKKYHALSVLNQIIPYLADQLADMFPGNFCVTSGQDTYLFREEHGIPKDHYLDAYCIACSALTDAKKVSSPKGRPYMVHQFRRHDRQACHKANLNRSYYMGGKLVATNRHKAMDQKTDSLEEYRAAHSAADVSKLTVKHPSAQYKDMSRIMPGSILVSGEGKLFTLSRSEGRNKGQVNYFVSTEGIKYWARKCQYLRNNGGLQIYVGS
# B1: OgeuIscB ωRNA with 16-nt guide ; cryo-EM target DNA (ssRNA ; dsDNA)
# RNA: AAAAGAGUGAACGAGAGGCUCUUCCAACUUUAUGGUUGCGACCGUAGGUUGAAAGAGCACAGGCUGAGACAUUCGUAAGGCCGAAAGACCGGACGCACCCUGGGAUUUCCCCAGUCCCCGGAACUGCAUAGCGGAUGCCAGUUGAUGGAGCAAUCUAUCAGAUAAGCCAGGGGGAACAAUCACCUCUCUGUAUCAGAGAGAGUUUUACAAAAGGAGGAACGG
# DNA 1: CGCCCCACGAGGGTACGGCAAAAGAGTTTTTTTTACTAGAAGTCGAGGTCAGCCCGTGGC
# DNA 2: GCCACGGGCTGACCTCGACTTCTAGTCTCGTTCACTCTTTTGCCGTACCCTCGTGGGGCG
# modifications: phosphorothioate at several positions of both strands (after G25-T31 region as marked by *)
# Target: T1, OgeuIscB wild-type
# Experiment: structure; cryo-EM of IscB-ωRNA/target DNA at 2.78 A; TAM 5'-CTAGAA-3' (ideal NWRRNA)
# Conditions: label: 5' 6-FAM on non-target strand; partially mismatched bubble in protospacer
# Method: IscB was incubated for 15 minutes at 37° C. with the target DNA in cleavage buffer. DNA was supplied at a 3 fold molar excess to IscB (0.5 mg/mL final concentration). 3.5 μL of were applied to a Quantifoil holey carbon grid (1.2/1.3, 200 mesh) which had been glow-discharged with 20 mA at 0.39 mBar for 30 seconds (PELCO easiGlow). Grids were blotted with Vitrobot blotting paper (Electron Microscopy Sciences) for 6.5 s at 4° C., 100% humidity, and plunge-frozen in liquid ethane using a Mark IV FEI/Thermo Fisher Vitrobot. Data were collected on a Krios G3i Cryo Transmission Electron Microscope (Thermo Scientific) with a Ceta 16M CMOS camera 300 kV, Gatan K3 direct electron detector. The total exposure time of each movie stack led to a total accumulated dose of 50 electrons per Å2 which fractionated into 50 frames. Dose-fractionated super-resolution movie stacks collected from the Gatan K3 direct electron detector were binned to a pixel size of 1.1 Å. The defocus value was set between −1.0 μm to −2.5 μm.
binder,measurement,value
B1,binding result,binds
